According to the domain aggregation screens of Martell et al. (2025):

experiment: soluble fraction after stress (log2 fold change); higher = more stays soluble; pooled small domains, quantitative proteomics; settings: stress: pH 4
Outline: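 Aggregation propensity is estimated from the fold change in each domain's soluble amount after acid stress. Pooled small-domain libraries were stressed at pH 4, and higher log2 values mean more stayed soluble.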

Sequence	soluble fraction (log2)
HMNHTIEENDRVLILDPRGKKYLITVTNRVFHTNLGKLDISELIGKNYGDKIKSHMGKNFSILKPNLIDYI	0.053
HMDLSQTVQAKALARVNVREGAGTHFKSLGKLKKGELLPVFRVGNSWASIWWKGRVAYVHTDYLRFESA	-0.153
HMKIELTDQQKSLVVDEWNKGEANPPSLLQLIRLAYPDQPHLDGRSKEGKAVKAFLATRDINPLA	-0.0382
HMVNYKEILRLAHEGYSQRQIATNIGNSRNTVSEVLDAAKAANIAWPPEETVTNEQLGAILFPNRH	≥ 0.43
HMVPLTPGELVGTEVRVLWWKEGRGEVIASSRGHQLTLEAHSEDPLRAGSTAVVLEAADDVLVVTS	-1.18
HMTTHEQVAILRRELNGLVGAWHHRTGQAHGVTHSKLRKELGGPPAAVASAAQLSARIEKIRQWAT	-0.0306
HMLADTNIHTIALKHRLANEVVEQVRPFLPETATIRAYDNMLILKSDRATLANVEQLIKKLDT	0.228
HMSKPVFQTHSVRSADSATVFDVLQTLLAGTPDARIAIDPKTNAIVAWARPETQEVIAKSIMEMEG	-0.418
HMGISQAQAMQALRKLIEEEDKHTPLSDQTLMERLKAAGIPLARRTIAKYRESLGIPSAAQRK	-0.0327
HMNKLKALREEQGLSMMEIAKQLNMPYTTYVNYEKGTREPNSEMLIKFSKFFNVTIDYLIGNSEQKN	-0.129
HMDYLYHNGKEIDQGSIMYKMEDYSDGIFELQSAKYADGTELDEKELEELESTQELIDWVMIDFVS	-1.99
HMTDVRFISIPIQKEHPWNRKLVSELNLPPGTLLVFLRRTGENIVPNGKTMIQEGDVLVLGASAYR	-1.04
HMPKNRTDYVQDVLKSLGRPAHYKEITQIINAMLPKEAQYSAKSIQVVLGSSPLFIRVGTGTYALVE	-0.79
HMNDGTIRVGTNVTIKPSAKRWATGQNIYYGVKGKTYKVIQMNGNRLLLDKVISWINKGDVYVPGS	0.192
HMSDRLRLGRRIRAARLEQNLSQAALAERLGISASYLNLLEHDRRSLTTVLLLKLAQVLGLELRDLAAG	0.0304
HMTYNEYPEKEMQDLIDKSISQQEQAASQYGYSLGDYVTARYGFQSESDFREYVQGLAEDYMKEKI	-1.33
HMEVLTEPKVQSIDTHGEKSTFVIESPNPLQPDEIAKLVGADGISVRVDRTWLKSHRDSTWTYSILTVS	0.163
HMFDTVKIGKRIAELRKKRDMTQFELADRLGISYQAVSNWERGNSMPDIAKLPELAEIFGVTVDEILG	0.135
HMSMDPYTVLGVNKSSTDSQIKNAYKNLAKQHHPDRGGNEAKFKEISTAYEQIKTAEKRQQYDMSQQF	0.389
HMQGRIYLNPDLAEKLRAQYAAYPHWSYLLHTENLGALVRKTESLGPMPSYSTILRYMHANDMRKRNKP	-0.149
HMGKNISEEDMLGYFKKIDLDYDAETKEVIAPTFRHDLFRLADLAEEVARFFGYDNIPTTLPSGEAT	-0.488
HMANPEFAGYINGKPYFGPTHQHRGVKMLGATHTRNPHPLVWDSIAESLANYDSRFRWSGGQIL	-0.203
HMVYVPTKAEVSQQFQDASKARFDERYAIVELADGRRTMAPLAFLTKADHAWLKQLASTSPLPKGK	0.0133
HMTSPRRLYALIVEHVGKDGVMHRSDVENVLAKVESEMDVDDLLDQLEINGTIIRRQDGTWQLL	-1.66
HMKSSTEIIYSDFLREVSNGQISEVTIQGDFVRGLFLSGSSFQTYAPKDSNLINILRDKKVRIKVHPP	-0.11

Sequence	soluble fraction (log2)
HMQVSEQVQRLLDALENDTLTTKELMDRLGLKHRPTFRKNYLLPSMKLGLVEMTIPDKPNSSRQKYRRRQ	0.00707
HMLSEKELLELLNRAKSNYNGITKKGIEAIALKYQGYSNVEIANLYHVKANHISAWISRARSRLKADY	-0.0621
HMSTTDGIERFLASGAVKGIGRTMAARIVEHFGSRTLTVMESEPERLTEVAGIGRKKAESIAASYAELS	-0.137
HMGSLKISNPVKDTLWIQGVDGLKSIEIYSSTGQLVKTILGNQGDVSSLPKGVYFLKINTPSESLTAKIIK	≥ 0.43
HMIDIDNLEKAAILLLSMGTEAAAKVMQKLSRDEVQRLISKMASLSGVSSIEAKWTLQQFFNQYREQSG	-0.832
HMGDAVSRAYFALADDLLKGELTETVSEVLIRTRYELTSAQLQAVLHRIAQEGWAHKKPGYGWEFSAMLT	-1.39
HMDPLASLTPREREVLSLMAQGLSNLAVAERLVVSAGAVEKHISSIFTKLDLAPSEHEHRRVLAVLRYVAG	-2.09
HMVPQEVLPITLIIDGKLIEENLLYAKMTEQVLIQQLDINNIKSIKQILFAGLDSFGNFFYQEKQN	-1.91
HMSEKIDINNSNELELKQLPLTNEQIKSLIEFRRLHGEIQNIYELKNIDFFNIEKVHELKAHIEIKKII	-1.05
HMGLVVIGTEAGYPAEKAGILAGDRIRKLNGAAVPDYDTFLTALAARKGEPSAIELERDGKTLEVTVSPL	-0.21
HMWPQIAGFADRFGLSDTERRIVTLMSHGRSRKIIASTLGYSQNTIRNYTRNIYAKAGVHSKQELLDLLDP	-0.117
HMKWGDTPTVEVPNLIGMKKKDLQTQLVDLKLDISGDGEKVIKQSPEAGAKVKEGSKIRIYFG	-0.0575
HMTESIHVGSKVTINNNAKRWATGQNIYSGVKGKTYTVIQMNGSRLLLDKVISWINKGDVHLPGS	0.0896
HMKGILVPASSIISDGDKNYVWTVEKGKAKKVEVTLGNADAENQEISSGLTKDSKVITNPTDSLKDGQEV	0.269
HMTIRPEDVELVPAEDGYMQGDVVSNIFKGVHYELEVKANGYDWMVHTTKYVEVGSHVGIKVIPFNIQV	0.22
HMNEFAYLIKISPEHNNNRYYRMVAEGDNFRIEMGRIGASPVQMKRPMYLWNETYQKKLQEGYTDRTSYTS	-0.2
HMERLKKYLDDVRTFLPGTNPKKVDEILREIESHVLERAEREHGEVNDNAVAMSIKEYGSPEEVAARYYEG	-0.29
HMSDFDPTLILDLIKGSGEALTKREIARALGIKGGDKRIELKSHLKSMEAEGVIVKQAGGAYSVP	-0.00302
HMNKSEFLNELEKRIRVLEKNEIKDILAEYSQHIDMRMGSGLSEAEAIKDFGDMDDLAAEILEAY	-0.436
HMKGQLVVFPNPASSNDMVRFNKNISFSIFDITGHLVDTKRNVNELSVGNLEAGTYILRTEQGDVLRMVI	-0.904
HMYAHTPEMEAMNELGLEPPVTLDEIKKTYKTLVKKYHPDHNKEDPEAEEKLKKVNMAYTILKVAYTEFEK	0.0101
HMTYSEEEIERDLYVRGTLYQIGDLVENKIDGTSGEIVRRGPNYVQYSDGENFYKAFLHSIQEV	-1.45
HMKTGAKLKNLRKMKKLSQEEVAKVLNLSYSTLSRWENDTRIPTYEDLFKLGQFYGVSVDYLSDPN	-0.853
HMNSNQESFENWLSANSWYNKDRAMRVFADSLGQELRNSGVSFEKALTQISAEVRKEFSHKFQ	-0.213
HMSQDVLLKRSGDQIEVKITEVGEDYLKYKKKGFENGPDFKINTSDVFMVTFANGEKMMFEES	-2.15

Sequence	soluble fraction (log2)
HMSVTRELMLVKVKVTPEQRAGVSAIVDIFRANIIDVGKESMIIELTGNKSKLEAFIDLLDGYEILELART	-0.865
HMTSVRVPVKKEIWFWAIKESQRDLNEILARFPKMDKWINQEENPTFNQLEKVAKFLRVPFGYMFLDKPPK	0.332
HMEGLATRLRFLRQARGLSYHALARLSGVTHTALHQIEAGKNIPGLDTAEKIAMALDVDPRWFAYGRGDPS	-0.578
HMGHTVHAVPEAADRQRLDVFVGNLHPTISRAYIQKLSKEDQILVNGKPEKAGFKLRTGHSVSVPDMSE	0.177
HMDGNVPSVEGKPLSGAKYILETYGYKTGTVTEVNSEDVPAGIVISQNPARGTTLANGGSVNLQVSLG	0.238
HMELSAQEIGRRLRIARENADIRQDDAAQVIGMSRPTLVSIEKGVRRVRIQEIQMLARHYGVSVNALLR	-0.2
HMSQISKLWRPSEDVTEILTRSGMDSEFLEGLIPEFIIYWSERADVLVSYNSKFIEHARLKWAQHSAEIKT	-1.94
HMVSLPSPLAGKVVSLTVQAGQEVKEGDEIMVLEAMKMNTQVHAPSSGRILALRVQPGDQVEEGQTLVTMG	0.0584
HMEREKTYLMPDLIGRKAERVVPRLQASGFKVEDIRHVYYPGLEKGVIVRQSPPGGYPIQKRNLINLEVS	0.0984
HMGEQYYVLIDNKQNGPHNINAIQKMIDQNIVNRQTLIWKKGMTDWGNIMDDKDLKEMVNKIP	0.0559
HMPFNREYWIEQLLKEVGLMGTPYAELDKHEVELDSPTGRASGFKVNAKTYVDQQLLFIENEYNNQPE	-0.899
HMSPSSPNQILGQYPKTKNDIILSSGRYGPYLKYNKKNYSLGNNISVEKLSLEEAVKIIDLKDKK	0.0926
HMVERLVVSPGAGVFAPNKAIANGTRISVGDVLGMVGEQEVRSLFDGVLQSFISVDGERLTAHQPVAWLRT	-0.111
HMGLVQQSAQKSDDAAKLMAANNLNAAQSKYQLPDEAEKDFFTFAFERGYAVEDFVDAGLVDKIMADFSA	-0.44
HMAGTPAIVKWFNPTKGFGFVTPKEAGSDALLHASVLAKRGKRWLQEGTLVEVLIEEGPKGLVVSELLTIE	-0.659
HMDSVPEEQLRQLALDKAKEVKRWGQPVELAKMNAHDRRIIHINLQDDPEIETRSEGEGALKSVIISLKK	0.135
HMSFDTFKKVFSNLVEKSGYSDAEIARRLGVNRSTISRWKSGEQSPPLPKVKEIANFFGVSPMVFVD	0.0603
HMNGPTPEEKLAVVNAEFVRQYGDEYEELELEGEELEEYYQKALNKEDFEYDIPHLPGWDEP	-0.905
HMDKEQVTFIFRDIDIALRSLDYPIKDIKNTLNIIKSEFSNSKSTELNEQKINFENILKEAISILENND	-0.969
HMKSLLDQINGIGAIRKRALLNHFGSARAVESASLDEIKSVEGVEAKVAKKIYNFFHEYKNMLR	0.0807
HMQDVVFTVDKDQTGAEIGDMLYEKGIISSPTTFRLALRLTGSMDKLQQGYYQIPQNASLRQVIALLQKG	-0.522
HMPHSTTDFSVSPDERQIVYSTNLQGRYDLWALDHNQGYPYPLTKKGQMSFFIKHLPGSQMILTGFD	0.0618
HMQWGKVRRLPSGRYQASYVHKGTRYTAPETYTVQGRAHGWIESERRLIVTDTWTPPDTRPS	-0.202
HMSENEVQAKVKEIVDRYAGDKSALIAILQDVQDEYRYLPKEALVSIQQQMNIPLSRVYEVATFYDAFS	-0.862
HMNVPLYIMIESAVEQRLLDGTYQVGKMIPTEFELMDEFSVSRETVRKAINLLVQRGKLEKKRGIGTFVAS	-0.26
